According to PMC3835790, “Statistical Experimental Design Guided Optimization of a One-Pot Biphasic Multienzyme Total Synthesis of Amorpha-4,11-diene” (PLoS ONE, 2013):

Test system: CC(C)=CCC/C(C)=C/CC/C(C)=C/CO[P@@](=O)(O)OP(=O)(O)O
Test: purified protein
Settings: 100 mM Tris/HCl pH 7.4, 30°C, substrate not printed in the table row, FPP from the pathway

Sequence of amorpha-4,11-diene synthase (Ads) (Artemisia annua) (chain, as listed by the source): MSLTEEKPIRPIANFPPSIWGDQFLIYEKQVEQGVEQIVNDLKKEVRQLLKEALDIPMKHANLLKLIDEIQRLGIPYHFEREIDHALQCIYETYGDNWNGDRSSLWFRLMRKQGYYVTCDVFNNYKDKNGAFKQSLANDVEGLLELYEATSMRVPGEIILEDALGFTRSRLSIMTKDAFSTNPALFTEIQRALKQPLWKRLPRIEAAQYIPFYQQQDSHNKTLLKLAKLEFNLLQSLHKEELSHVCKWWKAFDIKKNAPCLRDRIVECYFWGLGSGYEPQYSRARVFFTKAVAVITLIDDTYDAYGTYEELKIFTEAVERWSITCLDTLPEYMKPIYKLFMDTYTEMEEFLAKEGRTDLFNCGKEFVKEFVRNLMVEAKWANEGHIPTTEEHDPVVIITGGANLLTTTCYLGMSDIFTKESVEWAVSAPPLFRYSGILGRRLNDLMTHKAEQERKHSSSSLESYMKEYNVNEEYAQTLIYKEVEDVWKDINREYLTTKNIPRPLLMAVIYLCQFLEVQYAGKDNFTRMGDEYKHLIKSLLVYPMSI

amorpha-4,11-diene synthase (Ads) (Artemisia annua)
Km: 43.72 ± 10.4 µM
kcat: 0.05 s⁻¹
